Read-outs that look alike come from different tables or passages of the source.
T1: HLA-DR4 on antigen presenting cells (L cells transfected with DR4; Priess cells DRB1*0401/DRB4*0101) (human)
T1 chain 1: not shown
T1 chain 2: not shown

T2: recombinant water-soluble HLA-DR4 (DRA/DRB1*0401) (human)
T2 chain 1: not shown
T2 chain 2: not shown

T3: recombinant water-soluble HLA-DR1 (DRA/DRB1*0101) (human)
T3 chain 1: not shown
T3 chain 2: not shown


Assays:
[1] = molecular target: recombinant water-soluble HLA-DR1 (DRA/DRB1*0101) (human)
[2] = molecular target: recombinant water-soluble HLA-DR4 (DRA/DRB1*0401) (human)
[3] = molecular target: recombinant water-soluble HLA-DR1 (DRA/DRB1*0101) (human); remark: listed apart in the source
[4] = molecular target: recombinant water-soluble HLA-DR4 (DRA/DRB1*0401) (human); remark: listed apart in the source
[5] = molecular target: recombinant water-soluble HLA-DR2 (DRB1*1501) (human)
[6] = molecular target: T1, HLA-DR4 on antigen presenting cells (L …); experiment: cell-based or functional assay
[7] = molecular target: T2, recombinant water-soluble HLA-DR4 …
[8] = molecular target: T3, recombinant water-soluble HLA-DR1 …
[9] = molecular target: T2, recombinant water-soluble HLA-DR4 …
[10] = molecular target: T3, recombinant water-soluble HLA-DR1 …

| Molecule | inhibition of the DR4-restricted 3838 T cell clone (IL-2 secretion) [6] | affinity determined by competition with biotinylated competitor [7] | other results |
| --- | --- | --- | --- |
| Copolymer 1, poly(Y,E,A,K) | – | – | affinity determined by competition with biotinylated competitor [1]: 8 µM; affinity determined by competition with biotinylated competitor [2]: 2.5 µM; percent of added YEAK in the bound fraction [3]: > 95%; percent of added YEAK in the bound fraction [4]: > 95%; percent of added YEAK in the bound fraction [5]: 80% |
| EAAYAAAAAAKAAAA (modifications not checked) [peptide SEQ ID NO: 16] | > 80% | 5 µM | – |
| AKKYEAAAAAAAAAA (modifications not checked) [peptide SEQ ID NO: 21] | – | 2.2 µM | – |
| KEAYAAAAAAKAAAA (modifications not checked) [peptide SEQ ID NO: 10] | – | 4.5 µM | – |
| AYKAEAAAAAAAAAA (modifications not checked) [peptide SEQ ID NO: 35] | – | 1.3 µM | – |
| AAKYEAAAAAAAAAA (modifications not checked) [peptide SEQ ID NO: 28] | > 80% | – | – |
| EKKYAAAAAAKAAAA (modifications not checked) [peptide SEQ ID NO: 17] | > 80% | 1.8 µM | – |
| AKYAEAAAAAAAAAA (modifications not checked) [peptide SEQ ID NO: 36] | – | 3 µM | – |
| AAEYKAAAAAAAAAA (modifications not checked) [peptide SEQ ID NO: 26] | – | 1.8 µM | – |
| AAEYAAAAAAKAAAA (modifications not checked) [peptide SEQ ID NO: 12] | – | 3.2 µM | affinity determined by competition with biotinylated competitor [8]: 47 µM |
| AEEYAAAAAAKAAAA (modifications not checked) [peptide SEQ ID NO: 11] | > 80% | – | – |
| AAAYAAAAAAKAAAA (modifications not checked) [peptide SEQ ID NO: 5] | – | 7 µM | – |
| AAKYAEAAAAKAAAA (modifications not checked) [peptide SEQ ID NO: 15] | – | 1.8 µM | affinity determined by competition with biotinylated competitor [9]: < 1 µM; affinity determined by competition with biotinylated competitor [10]: 16 µM; affinity determined by competition with biotinylated competitor [8]: 42 µM |
| AEKYAAAAAAKAAAA (modifications not checked) [peptide SEQ ID NO: 6] | > 80% | – | – |
| EAKYAAAAAAKAAAA (modifications not checked) [peptide SEQ ID NO: 18] | – | 4.4 µM | affinity determined by competition with biotinylated competitor [9]: 3 µM; affinity determined by competition with biotinylated competitor [8]: 33 µM |
| AEKAYAAAAAAAAAA (modifications not checked) [peptide SEQ ID NO: 33] | > 80% | – | affinity determined by competition with biotinylated competitor ([7]; remark: other sources report otherwise): < 1 µM |
| AAKYEAAAAAKAAAA (modifications not checked) [peptide SEQ ID NO: 14] | – | 4 µM | – |
| AKEYAAAAAAKAAAA (modifications not checked) [peptide SEQ ID NO: 7] | – | 4.5 µM | affinity determined by competition with biotinylated competitor [8]: 19 µM |
| AEYAKAAAAAAAAAA (modifications not checked) [peptide SEQ ID NO: 32] | – | 3 µM | – |
| EKAYAAAAAAKAAAA (modifications not checked) [peptide SEQ ID NO: 13] | – | 3.3 µM | – |

Reference: patent publication US20080207526A1
